# In patent US20190376133:
# Tested on: T1, Pol6-67-X2 (Clostridium phage phiCPV4)
# T1 sequence: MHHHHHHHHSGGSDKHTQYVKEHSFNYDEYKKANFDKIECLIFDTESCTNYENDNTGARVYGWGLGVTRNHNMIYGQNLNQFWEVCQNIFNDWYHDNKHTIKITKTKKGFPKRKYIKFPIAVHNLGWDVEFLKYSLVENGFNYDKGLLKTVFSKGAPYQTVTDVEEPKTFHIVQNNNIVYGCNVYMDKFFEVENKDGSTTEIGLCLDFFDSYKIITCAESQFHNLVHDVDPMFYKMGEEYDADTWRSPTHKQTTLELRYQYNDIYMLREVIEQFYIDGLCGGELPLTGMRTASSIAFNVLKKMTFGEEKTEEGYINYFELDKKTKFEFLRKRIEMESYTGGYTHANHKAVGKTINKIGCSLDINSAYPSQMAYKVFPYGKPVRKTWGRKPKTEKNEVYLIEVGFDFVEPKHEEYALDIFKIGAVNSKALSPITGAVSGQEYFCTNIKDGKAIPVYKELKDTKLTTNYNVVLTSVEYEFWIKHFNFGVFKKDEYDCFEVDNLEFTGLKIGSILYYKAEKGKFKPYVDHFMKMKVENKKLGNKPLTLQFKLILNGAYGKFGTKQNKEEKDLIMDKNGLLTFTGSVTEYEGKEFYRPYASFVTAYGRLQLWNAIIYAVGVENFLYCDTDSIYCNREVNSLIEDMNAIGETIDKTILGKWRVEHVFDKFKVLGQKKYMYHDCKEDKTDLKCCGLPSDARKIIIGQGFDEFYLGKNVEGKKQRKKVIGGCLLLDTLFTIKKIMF
# Conditions: 5'-desthiobiotin-TEG; iSpC3 spacer between SEQ 15 and SEQ 22; 8x polymerase (26% at 1x); bound at 40 C with 1.2 uM polyphosphate nucleotides; extension 5 min at 30 C with 5 mM MgCl2, 10 uM nucleotides; % bound correlates …
sequence,measurement,value
ACTGCTGATCTGTTCCTGAATCGACTACTACTATCATCATACCACCTCAGCTGCACGTTAAGTGCAGCTGAGGTGG [Fluorescent Hairpin DNA template],activity,66 % extension
